The source of these data is US20030044418A1 (TEXAS A AND M UNIVERSITY SYSTEM UNIVERSITY, published 2003).

No end group written: not given here.

Assay [1] concerns the target T1, rSdrG(50-597) (Staphylococcus epidermidis K28, UniProt Q9KI13 50-597).
T1 construct: Used biotin labeled in the Western ligand blots and in the ELISAs on protease-treated Fg; also called recombinant SdrG A-region; recombinant form of the N-terminal A-region of SdrG
T1 sequence: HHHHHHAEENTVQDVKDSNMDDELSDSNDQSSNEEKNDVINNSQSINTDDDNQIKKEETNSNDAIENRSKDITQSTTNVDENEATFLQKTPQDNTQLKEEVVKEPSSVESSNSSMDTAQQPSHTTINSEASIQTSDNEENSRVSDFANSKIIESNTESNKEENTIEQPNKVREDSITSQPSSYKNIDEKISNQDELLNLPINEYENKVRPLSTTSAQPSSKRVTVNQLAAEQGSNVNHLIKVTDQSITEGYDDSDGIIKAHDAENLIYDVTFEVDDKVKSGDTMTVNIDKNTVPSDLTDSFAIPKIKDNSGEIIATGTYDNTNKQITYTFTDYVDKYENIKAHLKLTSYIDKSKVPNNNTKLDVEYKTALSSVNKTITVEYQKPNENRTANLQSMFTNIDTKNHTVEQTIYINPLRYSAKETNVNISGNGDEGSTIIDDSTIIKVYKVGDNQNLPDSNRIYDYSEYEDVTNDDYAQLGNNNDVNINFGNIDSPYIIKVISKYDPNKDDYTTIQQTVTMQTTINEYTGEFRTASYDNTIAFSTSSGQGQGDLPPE
As to the kind of experiment: Western ligand blot, biotin labeled rSdrG(50-597).

In assay [2] the target is T1, rSdrG(50-597). As to the kind of experiment: inhibition ELISA, peptide varied, 50 nM rSdrG(50-597), Fg-coated wells. (In general: An ELISA detects its analyte on a solid surface through an enzyme-linked reagent.)
In assay [3] the target is T1, rSdrG(50-597). As to the kind of experiment: Western ligand blot of E. coli lysates, biotin labeled rSdrG(50-597) 0.5 µM.

B1: γ chain of Fg (ligand)
chain: YVATRDNCCILDERFGSYCPTTCGIADFLSTYQTKVDKDLQSLEDILHQVENKTSEVKQLIKAIQLTYNPDESSKPNMIDAATLKSRKMLEEIMKYEASILTHDSSIRYLQEIYNSNNQKIVNLKEKVAQLEAQCQEPCKDTVQIHDITGKDCQDIANKGAKQSGLYFIKPLKANQQFLVYCEIDGSGNGWTVFQKRLDGSVDFKKNWIQYKEGFGHLSPTGTTEFWLGNEKIHLISTQSAIPYALRVELEDWNGRTSTADYAMFKVGPEADKYRLTYAYFAGGDAGDAFDGFDFGDDPSDKFFTSHNGMQFSTWDNDNDKFEGNCAEQDGSGWWMNKCHAGHLNGVYYQGGTYSKASTPNGYDNGIIWATWKTRWYSMKKTTMKIIPFNRLTIGEGQQHHLGGAKQAGDV
notes: Chain of native Fg on a Western ligand blot
On to B1, for which the binding result in the assay with rSdrG(50-597) [1] is “no binding”.

B2: peptide β6-20 (peptide)
peptide: NEEGFFSARGHRPLD
notes: Synthetic peptide made in the inventors' laboratory
Regarding B2, in the assay with rSdrG(50-597) [2], the binding result is reported as “binds”.

B3: rβ(1-195) (ligand)
chain: QGVNDNEEGFFSARGHRPLDKKREEAPSLRPAPPPISGGGYRARPAKAAATQKKVERKAPDAGGCLHADPDLGVLCPTGCQLQEALLQQERPIRNSVDELNNNVEAVSQTSSSSFQYMYLLKDLWQKRQKQVKDNENVVNEYSSELEKHQLYIDETVNSNIPTNLRVLRSILENLRSKIQKLESDVSAQMEYCRT
notes: range 1-195; Expressed in E. coli; whole cell lysate on the blot; also called recombinant truncate encompassing residues 1-195; not shown: N-terminal His-tag or GST fusion
B3: the binding result with rSdrG(50-597) [3] was “binds”.

B4: peptide β1-25 (peptide)
peptide: QGVNDNEEGFFSARGHRPLDKKREE
modifications: ends and bridges not checked
notes: Synthetic peptide (Research Genetics); also called unlabeled β1-25; synthetic 25 amino acid peptide representing the N-terminus of the Fg Bβ chain
On to B4, for which the binding result with rSdrG(50-597) [2] is given as “binds”.

B5: rβ(1-95) (ligand)
chain: QGVNDNEEGFFSARGHRPLDKKREEAPSLRPAPPPISGGGYRARPAKAAATQKKVERKAPDAGGCLHADPDLGVLCPTGCQLQEALLQQERPIRN
notes: range 1-95; Expressed in E. coli; whole cell lysate on the blot; also called recombinant truncate encompassing residues 1-95; not shown: N-terminal His-tag or GST fusion
B5: the binding result with rSdrG(50-597) [3] was “binds”. NEEGFFSARGHRPLDKKREE (Synthetic peptide (Research Genetics)) [peptide β6-25]: the binding result with rSdrG(50-597) [2] is on record as “binds”.

B6: rβ(1-341) (ligand)
chain: QGVNDNEEGFFSARGHRPLDKKREEAPSLRPAPPPISGGGYRARPAKAAATQKKVERKAPDAGGCLHADPDLGVLCPTGCQLQEALLQQERPIRNSVDELNNNVEAVSQTSSSSFQYMYLLKDLWQKRQKQVKDNENVVNEYSSELEKHQLYIDETVNSNIPTNLRVLRSILENLRSKIQKLESDVSAQMEYCRTPCTVSCNIPVVSGKECEEIIRKGGETSEMYLIQPDSSVKPYRVYCDMNTENGGWTVIQNRQDGSVDFGRKWDPYKQGFGNVATNTDGKNYCGLPGEYWLGNDKISQLTRMGPTELLIEMEDWKGDKVKAHYGGFTVQNEANKYQIS
notes: range 1-341; Expressed in E. coli; whole cell lysate on the blot; also called recombinant truncate encompassing residues 1-341; not shown: N-terminal His-tag or GST fusion
As for B6, in the assay with rSdrG(50-597) [3], the binding result is recorded as “binds”.

B7: rβ(25-95) (ligand)
chain: EAPSLRPAPPPISGGGYRARPAKAAATQKKVERKAPDAGGCLHADPDLGVLCPTGCQLQEALLQQERPIRN
notes: range 25-95; Expressed in E. coli; whole cell lysate on the blot; The text says it lacks the N-terminal 25 residues although the name begins at 25; not shown: N-terminal His-tag or GST fusion
Consider B7, for which the binding result with rSdrG(50-597) [1] is “no binding (tested: 0.5 µM)”.

B8: rβ(1-220) (ligand)
chain: QGVNDNEEGFFSARGHRPLDKKREEAPSLRPAPPPISGGGYRARPAKAAATQKKVERKAPDAGGCLHADPDLGVLCPTGCQLQEALLQQERPIRNSVDELNNNVEAVSQTSSSSFQYMYLLKDLWQKRQKQVKDNENVVNEYSSELEKHQLYIDETVNSNIPTNLRVLRSILENLRSKIQKLESDVSAQMEYCRTPCTVSCNIPVVSGKECEEIIRKGGE
notes: range 1-220; Expressed in E. coli; whole cell lysate on the blot; also called recombinant truncate encompassing residues 1-220; not shown: N-terminal His-tag or GST fusion
Turning to B8, the binding result with rSdrG(50-597) [3] is listed as “binds”. QGVNDNEEGFFSARGHRPLD (ends and bridges not checked, Synthetic peptide (Research Genetics)) [peptide β1-20]: in the assay with rSdrG(50-597) [2], the binding result was “binds”.

B9: rβ(25-195) (ligand)
chain: EAPSLRPAPPPISGGGYRARPAKAAATQKKVERKAPDAGGCLHADPDLGVLCPTGCQLQEALLQQERPIRNSVDELNNNVEAVSQTSSSSFQYMYLLKDLWQKRQKQVKDNENVVNEYSSELEKHQLYIDETVNSNIPTNLRVLRSILENLRSKIQKLESDVSAQMEYCRT
notes: range 25-195; Expressed in E. coli; whole cell lysate on the blot; The text says it lacks the N-terminal 25 residues although the name begins at 25; not shown: N-terminal His-tag or GST fusion
As to B9, the binding result in the assay with rSdrG(50-597) [1] is “no binding (tested: 0.5 µM)”.
